PMC7293036

System: eIF4G HEAT1 domain
Assay: MST

For 5'tiRNAAla, which Kd is on record?
Its Kd is 410 nM.
